Measured values: patent publication US20150291692A1

Columns and labels:
[1] = target: KIR3DL2 on fresh Sezary Syndrome cells of patients (human) (UniProt P43630); assay: flow cytometry of whole blood of a Sezary Syndrome patient, antibody + GaM-PE against CD4; upper gate (CD4+ cells)
[2] = target: NK cells, including normal KIR3DL2+ NK cells (Homo sapiens) (UniProt P43630); assay: flow cytometry of whole blood of a Sezary Syndrome patient, antibody + GaM-PE against CD4; lower gate (CD4-negative NK cells)
Sequence of NK cells, including normal KIR3DL2+ NK cells (Homo sapiens) (P43630 22-455 limits assumed): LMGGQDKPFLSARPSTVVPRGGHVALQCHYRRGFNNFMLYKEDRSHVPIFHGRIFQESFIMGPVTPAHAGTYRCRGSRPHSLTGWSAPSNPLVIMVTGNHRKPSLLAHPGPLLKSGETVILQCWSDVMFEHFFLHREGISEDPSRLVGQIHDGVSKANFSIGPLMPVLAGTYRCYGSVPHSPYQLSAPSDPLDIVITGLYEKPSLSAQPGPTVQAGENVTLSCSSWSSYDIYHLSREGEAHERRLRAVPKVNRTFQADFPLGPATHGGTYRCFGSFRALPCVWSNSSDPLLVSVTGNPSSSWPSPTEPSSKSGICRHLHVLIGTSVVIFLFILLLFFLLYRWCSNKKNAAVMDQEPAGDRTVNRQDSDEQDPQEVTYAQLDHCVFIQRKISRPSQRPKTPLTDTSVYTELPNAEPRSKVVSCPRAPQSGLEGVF

Sequence of KIR3DL2 on fresh Sezary Syndrome cells of patients (human) (P43630 22-455): as the sequence (P43630 22-455 limits assumed) above

- % of cells in gate CD4 GaM PE+ [1]: 0.1%
- % of cells in gate NK GaM PE+ [2]: 0.9%
Substance: Isotype Control (antibody)
